# Measurements reported in paper PMC6802118, “Isolation of Artemisia capillaris membrane-bound di-prenyltransferase for phenylpropanoids and redesign of artepillin C in yeast” (Communications Biology, 2019).
# Experiments:
# [1] = substrate: CC(C)=CCc1cc(/C=C/C(=O)O)ccc1O; test: HPLC assay of artepillin C formation; non-linear least-squares fit; type: biochemical, Artemisia capillaris; conditions: N. benthamiana microsomes, 0.5 mM DMAPP, 10 mM MgCl2, 30 °C, 20 min, 15.6-250 µM drupanin, mean ± SE
# [2] = substrate: CC(C)=CCOP(=O)(O)OP(=O)(O)O; test: as above; type: biochemical, Artemisia capillaris; conditions: N. benthamiana microsomes, 0.5 mM drupanin, 10 mM MgCl2, 30 °C, 20 min, 12.5-200 µM DMAPP, mean ± SE
protein,measurement,setting,value
"AcPT1 (Artemisia capillaris) (protein, full CDS, 401 aa incl. predicted 38-aa plastid transit peptide; untagged (pGWB502, 35S promoter); transient expression in Nicotiana benthamiana leaves; microsomes) ISKVENNVSAQFQRRGYKNHFGQSLHEPLSLQKMDEEKFKLNAASTNNPQFDATHDLVKPTESVISFLEVLFRFIRPYAAVGTVLCIASMSLLTVEKLSDFSPLFFMKVLQALVGAMFMQMWVCGINQICDIELDKINKPSLPLASGELSMTTAITVSALSAIMSFSIGWIASPALFWGFVGWFVVGTAYSANLPWLRWKRFPLTSAFYMLCSRALVVPIGYYLHMQKSIHGGSALLSRPILFAVGMLSAFCISTIFFKDIPDIEGDRMHGIKSLAITLGEKRTFWMCIWILEIAYVAAAFFGATSPITWSKYITVISHLAMALALWTRAKSTDVKNKDAVQSMYYFLWQLFFAEYGLIALVR",Km,[1],50 ± 5 µM
same,Km,[2],130 ± 20 µM
